Measurements published in patent publication US20250242041A1 (Seagen, published 2025).
Read-outs that look alike come from different tables or passages of the source.

What was measured:
[1] = target: T1, recombinant human αvβ1 (human, UniProt P06756 31-992; P05556 21-728); experiment: ELISA on coated recombinant integrin
T1 construct: Bought from R&D Systems
Experimental: (§1) 96-well Maxisorb plates (Nunc) were coated overnight at 4° C. with 1 ug/ml of recombinant human αvβ1, αvβ3, αvβ5, αvβ6 and αvβ8 (R&D Systems, MN) diluted in 50 mM carbonate buffer (Sigma, MO). Plates were washed with PBS+0.05% Tween 20 (PBS-T). Wash buffer was removed and plates were blocked for 2 hours at room temperature in TBS blocking buffer (TBS, 0.05% Tween 20, 1% BSA). Plates were washed and then incubated for 2 hours with humanized 2A2 antibody diluted in TBS binding buffer (TBS, 0.05% Tween 20, 1% BSA, 1 mM MnCl₂) at concentrations that ranged from 1 pM-67 nM (10 ug/ml). Plates were washed, incubated for 1 hour with 1:5000 dilution of anti-human Fc-HRP (Jackson ImmunoResearch, PA), washed, and then incubated with TMB substrate for 5 minutes. The reaction was stopped with 1 M HCl. Absorbance at 450 nm was read using a Fusion HT plate reader (Perkin Elmer, Waltham, MA).

[2] = target: T2, recombinant human αvβ3 (human, UniProt P06756 31-992; P05106 27-718); experiment: ELISA on coated recombinant integrin
T2 construct: Bought from R&D Systems
T2 sequence (P05106 27-718 limits assumed, one chain of several): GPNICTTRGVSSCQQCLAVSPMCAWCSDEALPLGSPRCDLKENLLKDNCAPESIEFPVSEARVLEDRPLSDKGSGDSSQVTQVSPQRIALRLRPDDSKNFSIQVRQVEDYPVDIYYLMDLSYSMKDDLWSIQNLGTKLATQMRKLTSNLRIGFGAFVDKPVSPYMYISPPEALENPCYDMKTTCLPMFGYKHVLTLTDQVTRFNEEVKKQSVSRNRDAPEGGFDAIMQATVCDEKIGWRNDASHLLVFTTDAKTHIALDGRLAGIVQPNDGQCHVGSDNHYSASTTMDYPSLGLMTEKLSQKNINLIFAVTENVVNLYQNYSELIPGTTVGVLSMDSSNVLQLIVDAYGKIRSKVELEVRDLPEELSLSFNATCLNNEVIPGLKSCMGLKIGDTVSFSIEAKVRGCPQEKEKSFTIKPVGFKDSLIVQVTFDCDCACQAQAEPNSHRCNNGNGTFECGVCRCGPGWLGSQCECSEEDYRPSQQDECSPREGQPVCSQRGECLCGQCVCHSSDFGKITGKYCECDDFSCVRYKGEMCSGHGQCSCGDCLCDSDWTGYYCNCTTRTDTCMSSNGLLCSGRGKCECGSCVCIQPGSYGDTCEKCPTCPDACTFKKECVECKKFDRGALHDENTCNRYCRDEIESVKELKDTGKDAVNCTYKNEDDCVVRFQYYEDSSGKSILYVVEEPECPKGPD
Experimental: as §1

[3] = target: T3, recombinant human αvβ5 (human, UniProt P06756 31-992; P18084 24-719); experiment: ELISA on coated recombinant integrin
T3 construct: Bought from R&D Systems
T3 sequence (P18084 24-719 limits assumed, one chain of several): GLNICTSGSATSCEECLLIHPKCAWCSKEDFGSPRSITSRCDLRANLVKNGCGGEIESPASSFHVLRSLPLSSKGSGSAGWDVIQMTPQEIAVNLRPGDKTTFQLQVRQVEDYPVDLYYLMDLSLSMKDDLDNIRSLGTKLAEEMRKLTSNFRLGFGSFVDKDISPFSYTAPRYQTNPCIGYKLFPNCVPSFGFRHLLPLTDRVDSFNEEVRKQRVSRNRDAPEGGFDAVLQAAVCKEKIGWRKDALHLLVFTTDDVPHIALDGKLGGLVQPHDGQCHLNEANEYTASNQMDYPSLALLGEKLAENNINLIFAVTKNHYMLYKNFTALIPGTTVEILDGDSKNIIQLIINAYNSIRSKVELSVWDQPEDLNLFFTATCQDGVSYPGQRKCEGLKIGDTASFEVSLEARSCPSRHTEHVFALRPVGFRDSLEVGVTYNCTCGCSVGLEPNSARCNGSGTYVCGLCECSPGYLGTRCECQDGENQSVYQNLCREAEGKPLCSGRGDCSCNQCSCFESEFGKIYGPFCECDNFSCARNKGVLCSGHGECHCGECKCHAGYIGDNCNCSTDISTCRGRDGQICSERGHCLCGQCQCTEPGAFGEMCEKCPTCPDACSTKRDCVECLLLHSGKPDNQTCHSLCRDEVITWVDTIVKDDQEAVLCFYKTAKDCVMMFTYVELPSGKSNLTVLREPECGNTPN
Experimental: as §1

[4] = target: T4, recombinant human αvβ8 (human, UniProt P06756 31-992; P26012 43-684); experiment: ELISA on coated recombinant integrin
T4 construct: Bought from R&D Systems
T4 sequence (P26012 43-684 limits assumed, one chain of several): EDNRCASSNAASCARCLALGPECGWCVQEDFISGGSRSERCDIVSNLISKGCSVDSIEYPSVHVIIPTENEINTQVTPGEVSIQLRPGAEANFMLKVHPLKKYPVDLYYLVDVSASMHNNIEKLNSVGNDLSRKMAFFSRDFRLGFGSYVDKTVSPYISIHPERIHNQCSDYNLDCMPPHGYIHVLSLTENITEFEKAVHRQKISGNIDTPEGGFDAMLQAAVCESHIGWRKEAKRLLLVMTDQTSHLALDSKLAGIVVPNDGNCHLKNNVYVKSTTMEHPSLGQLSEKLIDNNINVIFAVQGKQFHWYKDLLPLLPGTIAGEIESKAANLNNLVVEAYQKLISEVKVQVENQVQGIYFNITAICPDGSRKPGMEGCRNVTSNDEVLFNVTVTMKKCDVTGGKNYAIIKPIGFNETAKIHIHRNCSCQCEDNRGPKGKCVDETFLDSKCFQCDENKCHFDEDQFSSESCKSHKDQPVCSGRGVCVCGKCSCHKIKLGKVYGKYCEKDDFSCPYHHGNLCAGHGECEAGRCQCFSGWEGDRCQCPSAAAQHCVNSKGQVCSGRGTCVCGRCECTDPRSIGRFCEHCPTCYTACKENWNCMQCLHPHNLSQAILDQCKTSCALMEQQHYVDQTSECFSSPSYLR
Experimental: as §1

[5] = target: T5, recombinant human αvβ6 (R&D Systems) (human, UniProt P06756 31-992; P18564 22-707); experiment: ELISA on coated recombinant integrin
T5 construct: Bought from R&D Systems, coated on the ELISA plate
Experimental: as §1

[6] = target: T6, human αvβ6 on 293F:huβ6 cells (human, UniProt P06756 31-1048; P18564 22-788); experiment: competition binding on 293F cells; 2nM m2A2-AF647 competitor
T6 chain 1: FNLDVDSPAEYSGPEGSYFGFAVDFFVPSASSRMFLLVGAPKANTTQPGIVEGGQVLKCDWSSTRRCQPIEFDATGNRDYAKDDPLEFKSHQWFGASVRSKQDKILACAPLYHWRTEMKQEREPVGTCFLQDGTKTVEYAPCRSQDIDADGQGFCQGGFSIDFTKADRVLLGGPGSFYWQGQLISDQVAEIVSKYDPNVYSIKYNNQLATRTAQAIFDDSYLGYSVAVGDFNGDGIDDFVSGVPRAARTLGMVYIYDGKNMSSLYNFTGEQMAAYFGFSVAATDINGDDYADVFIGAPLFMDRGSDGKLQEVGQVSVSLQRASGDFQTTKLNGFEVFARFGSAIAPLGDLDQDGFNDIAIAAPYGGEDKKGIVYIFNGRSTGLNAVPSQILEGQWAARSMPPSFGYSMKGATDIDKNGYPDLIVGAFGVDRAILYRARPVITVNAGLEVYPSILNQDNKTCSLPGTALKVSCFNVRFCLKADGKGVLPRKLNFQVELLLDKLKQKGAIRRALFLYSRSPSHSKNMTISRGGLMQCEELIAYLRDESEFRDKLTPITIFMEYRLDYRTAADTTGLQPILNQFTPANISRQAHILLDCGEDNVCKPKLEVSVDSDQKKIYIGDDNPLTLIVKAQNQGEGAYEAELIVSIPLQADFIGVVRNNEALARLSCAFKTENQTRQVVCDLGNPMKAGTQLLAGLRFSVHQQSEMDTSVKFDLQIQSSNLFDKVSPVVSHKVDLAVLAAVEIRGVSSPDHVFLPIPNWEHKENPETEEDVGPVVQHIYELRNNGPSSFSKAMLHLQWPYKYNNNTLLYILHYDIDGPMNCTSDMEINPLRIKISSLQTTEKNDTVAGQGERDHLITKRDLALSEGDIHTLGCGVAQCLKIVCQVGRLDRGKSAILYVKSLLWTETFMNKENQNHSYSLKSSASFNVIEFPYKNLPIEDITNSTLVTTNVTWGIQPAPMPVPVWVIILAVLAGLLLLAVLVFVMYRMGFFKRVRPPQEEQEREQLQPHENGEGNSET
T6 chain 2: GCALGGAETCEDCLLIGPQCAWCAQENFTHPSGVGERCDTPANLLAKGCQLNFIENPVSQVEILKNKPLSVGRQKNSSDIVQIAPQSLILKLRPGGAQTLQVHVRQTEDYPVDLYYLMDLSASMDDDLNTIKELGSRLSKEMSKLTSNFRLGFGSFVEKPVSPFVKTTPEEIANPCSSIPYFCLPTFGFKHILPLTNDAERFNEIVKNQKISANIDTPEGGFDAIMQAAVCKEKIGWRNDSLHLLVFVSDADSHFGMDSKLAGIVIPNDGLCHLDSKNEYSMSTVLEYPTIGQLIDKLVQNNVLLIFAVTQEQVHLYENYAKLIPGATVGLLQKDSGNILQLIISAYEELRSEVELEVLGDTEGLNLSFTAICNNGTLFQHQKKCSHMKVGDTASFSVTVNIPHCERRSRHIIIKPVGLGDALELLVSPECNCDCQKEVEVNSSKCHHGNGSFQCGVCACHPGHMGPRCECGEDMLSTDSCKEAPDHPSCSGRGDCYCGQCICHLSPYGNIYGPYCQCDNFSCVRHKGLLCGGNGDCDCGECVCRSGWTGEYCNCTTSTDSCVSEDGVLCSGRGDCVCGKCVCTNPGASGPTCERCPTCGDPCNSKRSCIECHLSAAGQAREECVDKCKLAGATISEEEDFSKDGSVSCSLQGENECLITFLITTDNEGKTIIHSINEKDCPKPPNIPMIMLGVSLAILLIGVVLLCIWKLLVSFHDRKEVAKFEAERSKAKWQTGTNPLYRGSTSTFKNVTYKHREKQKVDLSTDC

[7] = target: T6, human αvβ6 on 293F:huβ6 cells; experiment: as above

T1 sequence (P05556 21-728 limits assumed, one chain of several): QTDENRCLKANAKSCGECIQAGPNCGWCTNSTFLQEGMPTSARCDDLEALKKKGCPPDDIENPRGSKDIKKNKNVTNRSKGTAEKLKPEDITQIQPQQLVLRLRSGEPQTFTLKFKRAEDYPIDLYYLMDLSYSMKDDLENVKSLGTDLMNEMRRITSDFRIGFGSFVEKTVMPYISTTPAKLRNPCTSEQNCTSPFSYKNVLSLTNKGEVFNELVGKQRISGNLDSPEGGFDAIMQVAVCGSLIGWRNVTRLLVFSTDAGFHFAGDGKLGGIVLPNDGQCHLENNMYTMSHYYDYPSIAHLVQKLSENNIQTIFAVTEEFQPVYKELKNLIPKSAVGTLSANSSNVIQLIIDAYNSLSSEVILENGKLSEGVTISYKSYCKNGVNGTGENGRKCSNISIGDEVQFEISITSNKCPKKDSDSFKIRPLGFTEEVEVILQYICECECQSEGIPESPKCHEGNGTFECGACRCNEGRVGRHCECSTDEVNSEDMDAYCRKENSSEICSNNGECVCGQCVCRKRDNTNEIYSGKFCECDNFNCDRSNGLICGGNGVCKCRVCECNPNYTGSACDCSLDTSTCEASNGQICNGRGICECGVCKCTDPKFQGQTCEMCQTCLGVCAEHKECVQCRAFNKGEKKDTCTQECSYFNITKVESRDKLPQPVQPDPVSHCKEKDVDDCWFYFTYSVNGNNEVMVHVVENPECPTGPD

B1: h2A2 HCLG humanized antibody (antibody, human IgG1, kappa, V domains shown)
VH: QFQLVQSGAEVKKPGASVKVSCKASGYSFTDYNVNWVRQAPGQGLEWIGVINPKYGTTRYNQKFKGRATLTVDKSTSTAYMELSSLRSEDTAVYYCTRGLNAWDYWGQGTLVTVSS
VL: DIQMTQSPSSLSASVGDRVTITCGASENIYGALNWYQQKPGKAPKLLIYGATNLEDGVPSRFSGSGSGRDYTFTISSLQPEDIATYYCQNVLTTPYTFGQGTKLEIKR
notes: Labelled with AlexaFluor-647 in the saturation assay; also called humanized 2A2 HCLG
B1: no binding (tested: 1 pM-67 nM (10 ug/ml)) [1]; no binding (tested: 1 pM-67 nM (10 ug/ml)) [2]; no binding (tested: 1 pM-67 nM (10 ug/ml)) [3]. The binding result [4] was “no binding (tested: 1 pM-67 nM (10 ug/ml))”, the binding result [5] was “binds” and the EC50 [6] was 1 nM. The EC50 [7] was 1 nM.
